# Laboratory results taken from IntAct's records for PubMed 35512704.
# B1: Speckle-type POZ protein (Homo sapiens), O43791 (parent)
# chain: MSRVPSPPPPAEMSSGPVAESWCYTQIKVVKFSYMWTINNFSFCREEMGEVIKSSTFSSGANDKLKWCLRVNPKGLDEESKDYLSLYLLLVSCPKSEVRAKFKFSILNAKGEETKAMESQRAYRFVQGKDWGFKKFIRRDFLLDEANGLLPDDKLTLFCEVSVVQDSVNISGQNTMNMVKVPECRLADELGGLWENSRFTDCCLCVAGQEFQAHKAILAARSPVFSAMFEHEMEESKKNRVEINDVEPEVFKEMMCFIYTGKAPNLDKMADDLLAAADKYALERLKVMCEDALCSNLSVENAAEILILADLHSADQLKTQAVDFINYHASDVLETSGWKSMVVSHPHLVAEAYRSLASAQCPFLGPPRKRLKQS
# Variants of: B1
# Settings: with fgfr4_human FGFR4, P22455
row,Variant,effect of a mutation on the interaction
1,F102C,with no effect

# Variants of: B1
# Settings: with fumh_human FH
row,Variant,effect of a mutation on the interaction
1,F102C,with no effect

# Variants of: B1
# Settings: with fzr1_human FZR1, Q9UM11
# fzr1_human FZR1, Q9UM11, sequence (Q9UM11 whole entry): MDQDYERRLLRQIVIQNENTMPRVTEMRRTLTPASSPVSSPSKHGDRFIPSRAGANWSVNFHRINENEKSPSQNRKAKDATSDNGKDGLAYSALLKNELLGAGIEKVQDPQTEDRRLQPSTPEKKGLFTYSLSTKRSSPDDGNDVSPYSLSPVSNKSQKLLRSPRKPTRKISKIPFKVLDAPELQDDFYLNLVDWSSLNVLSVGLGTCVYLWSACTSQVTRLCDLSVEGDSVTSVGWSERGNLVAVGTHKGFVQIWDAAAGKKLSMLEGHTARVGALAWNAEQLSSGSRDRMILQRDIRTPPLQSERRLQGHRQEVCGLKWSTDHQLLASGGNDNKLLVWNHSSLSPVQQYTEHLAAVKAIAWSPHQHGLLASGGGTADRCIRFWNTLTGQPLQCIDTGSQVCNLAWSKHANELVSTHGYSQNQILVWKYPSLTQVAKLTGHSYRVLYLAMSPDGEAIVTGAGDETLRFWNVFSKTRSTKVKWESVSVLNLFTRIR
row,Variant,effect of a mutation on the interaction
1,F102C,with no effect

# Variants of: B1
# Settings: with gbra6_human GABRA6, Q16445
row,Variant,effect of a mutation on the interaction
1,F102C,with no effect

# Variants of: B1
# Settings: with gata1_human GATA1, P15976
row,Variant,effect of a mutation on the interaction
1,F102C,with no effect

# Variants of: B1
# Settings: with p66b_human GATAD2B
row,Variant,effect of a mutation on the interaction
1,F102C,with no effect

# Variants of: B1
# Settings: with gna11_human GNA11, P29992
row,Variant,effect of a mutation on the interaction
1,F102C,with no effect

# Variants of: B1
# Settings: with gna13_human GNA13, Q14344
# gna13_human GNA13, Q14344, sequence (Q14344 whole entry): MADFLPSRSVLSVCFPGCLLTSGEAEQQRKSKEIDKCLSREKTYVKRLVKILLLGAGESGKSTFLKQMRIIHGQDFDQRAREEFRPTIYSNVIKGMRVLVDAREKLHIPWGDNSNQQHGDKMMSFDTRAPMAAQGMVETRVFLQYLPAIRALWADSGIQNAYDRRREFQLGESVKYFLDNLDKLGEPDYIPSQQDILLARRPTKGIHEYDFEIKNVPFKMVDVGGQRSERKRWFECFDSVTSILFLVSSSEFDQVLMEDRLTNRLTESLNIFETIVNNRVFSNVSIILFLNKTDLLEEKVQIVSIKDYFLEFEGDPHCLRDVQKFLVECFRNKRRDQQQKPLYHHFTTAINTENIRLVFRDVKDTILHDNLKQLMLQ
row,Variant,effect of a mutation on the interaction
1,F102C,with no effect

# Variants of: B1
# Settings: with gnaq_human GNAQ
row,Variant,effect of a mutation on the interaction
1,F102C,with no effect

# Variants of: B1
# Settings: with grm1_human GRM1, Q13255
# grm1_human GRM1, Q13255, sequence (Q13255 whole entry, looked up): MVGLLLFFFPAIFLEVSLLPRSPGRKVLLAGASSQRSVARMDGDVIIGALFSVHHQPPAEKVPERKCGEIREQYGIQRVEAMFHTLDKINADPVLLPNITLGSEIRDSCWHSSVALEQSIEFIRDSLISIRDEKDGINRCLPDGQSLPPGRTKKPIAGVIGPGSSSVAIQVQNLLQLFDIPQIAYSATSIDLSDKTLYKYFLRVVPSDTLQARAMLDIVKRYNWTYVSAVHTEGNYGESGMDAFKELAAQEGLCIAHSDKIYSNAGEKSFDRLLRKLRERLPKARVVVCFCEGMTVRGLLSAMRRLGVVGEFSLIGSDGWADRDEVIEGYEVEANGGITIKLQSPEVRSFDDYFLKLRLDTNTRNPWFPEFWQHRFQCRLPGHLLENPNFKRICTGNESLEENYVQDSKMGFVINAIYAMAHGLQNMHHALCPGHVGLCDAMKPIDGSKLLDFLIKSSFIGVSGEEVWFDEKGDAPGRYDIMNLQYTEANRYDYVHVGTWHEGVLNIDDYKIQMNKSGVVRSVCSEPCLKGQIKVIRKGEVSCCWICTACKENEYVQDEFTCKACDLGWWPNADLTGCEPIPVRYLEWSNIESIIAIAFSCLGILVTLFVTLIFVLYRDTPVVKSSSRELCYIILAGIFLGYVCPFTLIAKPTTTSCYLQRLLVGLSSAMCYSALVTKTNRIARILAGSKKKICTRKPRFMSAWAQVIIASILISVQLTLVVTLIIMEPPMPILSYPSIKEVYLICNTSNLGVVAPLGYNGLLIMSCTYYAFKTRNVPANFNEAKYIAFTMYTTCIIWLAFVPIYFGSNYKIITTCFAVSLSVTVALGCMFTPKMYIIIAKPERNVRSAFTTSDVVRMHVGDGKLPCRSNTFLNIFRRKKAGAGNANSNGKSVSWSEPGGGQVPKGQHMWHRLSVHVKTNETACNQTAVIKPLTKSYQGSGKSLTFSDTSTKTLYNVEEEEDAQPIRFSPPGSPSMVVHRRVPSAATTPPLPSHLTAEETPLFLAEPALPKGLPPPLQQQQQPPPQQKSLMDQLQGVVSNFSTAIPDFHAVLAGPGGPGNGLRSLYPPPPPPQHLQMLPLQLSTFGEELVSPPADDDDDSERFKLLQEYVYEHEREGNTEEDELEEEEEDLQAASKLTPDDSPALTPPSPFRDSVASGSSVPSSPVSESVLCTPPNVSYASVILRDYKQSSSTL
row,Variant,effect of a mutation on the interaction
1,F102C,with no effect

# Variants of: B1
# Settings: with grm3_human GRM3, Q14832
row,Variant,effect of a mutation on the interaction
1,F102C,with no effect

# Variants of: B1
# Settings: with gtpb4_human GTPBP4, Q9BZE4
row,Variant,effect of a mutation on the interaction
1,F102C,with no effect

# Variants of: B1
# Settings: with h33_human H3-3A
row,Variant,effect of a mutation on the interaction
1,F102C,with no effect

# Variants of: B1
# Settings: with hdac1_human HDAC1, Q13547
row,Variant,effect of a mutation on the interaction
1,F102C,with no effect

# Variants of: B1
# Settings: with hdac3_human HDAC3, O15379
row,Variant,effect of a mutation on the interaction
1,F102C,with no effect

# Variants of: B1
# Settings: with hgf_human HGF
row,Variant,effect of a mutation on the interaction
1,F102C,with no effect

# Variants of: B1
# Settings: with h31_human H3C1, P68431
row,Variant,effect of a mutation on the interaction
1,F102C,with no effect

# Variants of: B1
# Settings: with hlab_human HLA-B
row,Variant,effect of a mutation on the interaction
1,F102C,with no effect

# Variants of: B1
# Settings: with il7ra_human IL7R
row,Variant,effect of a mutation on the interaction
1,F102C,with no effect

# Variants of: B1
# Settings: with int12_human INTS12, Q96CB8
row,Variant,effect of a mutation on the interaction
1,F102C,with no effect

# Variants of: B1
# Settings: with jak1_human JAK1, P23458
row,Variant,effect of a mutation on the interaction
1,F102C,with no effect

# Variants of: B1
# Settings: with jak3_human JAK3, P52333
row,Variant,effect of a mutation on the interaction
1,F102C,with no effect

# Variants of: B1
# Settings: with kat2a_human KAT2A
row,Variant,effect of a mutation on the interaction
1,F102C,with no effect

# Variants of: B1
# Settings: with kdm5a_human KDM5A
row,Variant,effect of a mutation on the interaction
1,F102C,with no effect

# Variants of: B1
# Settings: with kdm5c_human KDM5C
row,Variant,effect of a mutation on the interaction
1,F102C,with no effect

# Variants of: B1
# Settings: with kdm6a_human KDM6A
row,Variant,effect of a mutation on the interaction
1,F102C,with no effect

# Variants of: B1
# Settings: with vgfr2_human KDR
row,Variant,effect of a mutation on the interaction
1,F102C,with no effect

# Variants of: B1
# Settings: with lims1_human LIMS1, P48059
# lims1_human LIMS1, P48059, sequence (P48059 whole entry): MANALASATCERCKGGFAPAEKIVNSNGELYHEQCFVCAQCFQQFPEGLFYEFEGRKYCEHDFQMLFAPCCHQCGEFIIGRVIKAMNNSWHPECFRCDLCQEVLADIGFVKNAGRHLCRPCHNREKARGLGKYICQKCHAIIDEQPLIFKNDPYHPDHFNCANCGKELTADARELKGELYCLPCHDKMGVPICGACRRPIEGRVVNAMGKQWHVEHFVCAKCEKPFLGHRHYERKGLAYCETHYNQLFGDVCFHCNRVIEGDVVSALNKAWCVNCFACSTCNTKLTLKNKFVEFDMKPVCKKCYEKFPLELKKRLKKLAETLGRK
row,Variant,effect of a mutation on the interaction
1,F102C,with no effect

# Variants of: B1
# Settings: with maga6_human MAGEA6, P43360
# maga6_human MAGEA6, P43360, sequence (P43360 whole entry): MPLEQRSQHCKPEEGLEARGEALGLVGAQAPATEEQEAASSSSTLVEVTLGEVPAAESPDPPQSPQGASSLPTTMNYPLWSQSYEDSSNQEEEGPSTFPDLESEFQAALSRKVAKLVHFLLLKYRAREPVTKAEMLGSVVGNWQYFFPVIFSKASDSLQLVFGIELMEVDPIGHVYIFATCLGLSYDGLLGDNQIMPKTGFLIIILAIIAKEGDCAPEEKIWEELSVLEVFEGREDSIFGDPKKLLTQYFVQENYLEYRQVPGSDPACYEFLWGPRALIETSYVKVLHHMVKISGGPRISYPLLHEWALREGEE
row,Variant,effect of a mutation on the interaction
1,F102C,with no effect

# Variants of: B1
# Settings: with m3k1_human MAP3K1, Q13233
row,Variant,effect of a mutation on the interaction
1,F102C,with no effect

# Variants of: B1
# Settings: with mk10_human MAPK10, P53779
# mk10_human MAPK10, P53779, sequence (P53779 whole entry): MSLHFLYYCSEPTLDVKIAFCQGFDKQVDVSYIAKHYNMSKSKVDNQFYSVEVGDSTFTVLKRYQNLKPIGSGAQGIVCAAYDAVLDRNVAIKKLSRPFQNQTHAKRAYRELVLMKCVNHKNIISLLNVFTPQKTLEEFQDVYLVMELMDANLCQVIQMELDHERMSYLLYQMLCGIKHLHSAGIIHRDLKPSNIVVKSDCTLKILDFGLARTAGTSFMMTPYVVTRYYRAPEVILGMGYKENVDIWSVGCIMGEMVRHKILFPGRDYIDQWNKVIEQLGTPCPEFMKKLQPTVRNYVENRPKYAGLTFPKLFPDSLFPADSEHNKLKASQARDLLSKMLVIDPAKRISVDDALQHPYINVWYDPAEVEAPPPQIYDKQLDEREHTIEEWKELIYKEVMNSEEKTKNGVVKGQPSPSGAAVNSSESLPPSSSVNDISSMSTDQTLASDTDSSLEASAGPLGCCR
row,Variant,effect of a mutation on the interaction
1,F102C,with no effect

# Variants of: B1
# Settings: with mk14_human MAPK14, Q16539
row,Variant,effect of a mutation on the interaction
1,F102C,with no effect

# Variants of: B1
# Settings: with mk03_human MAPK3, P27361
row,Variant,effect of a mutation on the interaction
1,F102C,with no effect

# Variants of: B1
# Settings: with mk04_human MAPK4, P31152
row,Variant,effect of a mutation on the interaction
1,F102C,with no effect

# Variants of: B1
# Settings: with mk06_human MAPK6, Q16659
row,Variant,effect of a mutation on the interaction
1,F102C,with no effect

# Variants of: B1
# Settings: with sin1_human MAPKAP1, Q9BPZ7
row,Variant,effect of a mutation on the interaction
1,F102C,with no effect

# Variants of: B1
# Settings: with mcl1_human MCL1, Q07820
row,Variant,effect of a mutation on the interaction
1,F102C,with no effect

# Variants of: B1
# Settings: with mdm2_human MDM2, Q00987
# mdm2_human MDM2, Q00987, sequence (Q00987 whole entry, looked up): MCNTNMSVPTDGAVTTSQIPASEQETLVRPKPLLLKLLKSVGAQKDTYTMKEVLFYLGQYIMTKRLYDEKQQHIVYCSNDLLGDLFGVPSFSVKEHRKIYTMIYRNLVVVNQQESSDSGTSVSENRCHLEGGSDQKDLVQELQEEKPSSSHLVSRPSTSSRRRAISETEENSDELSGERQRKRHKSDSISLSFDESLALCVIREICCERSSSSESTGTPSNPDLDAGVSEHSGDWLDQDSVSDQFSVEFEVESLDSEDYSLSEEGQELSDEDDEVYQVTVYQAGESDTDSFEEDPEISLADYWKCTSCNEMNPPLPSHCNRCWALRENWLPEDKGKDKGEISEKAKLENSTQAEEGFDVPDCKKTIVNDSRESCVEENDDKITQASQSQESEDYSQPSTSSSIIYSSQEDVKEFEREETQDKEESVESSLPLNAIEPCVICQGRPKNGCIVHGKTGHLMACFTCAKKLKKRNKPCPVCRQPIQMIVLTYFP
row,Variant,effect of a mutation on the interaction
1,F102C,with no effect

# Variants of: B1
# Settings: with mef2a_human MEF2A
row,Variant,effect of a mutation on the interaction
1,F102C,with no effect

# Variants of: B1
# Settings: with mitf_human MITF
row,Variant,effect of a mutation on the interaction
1,F102C,with no effect

# Variants of: B1
# Settings: with mtor_human MTOR
row,Variant,effect of a mutation on the interaction
1,F102C,with no effect

# Variants of: B1
# Settings: with mybb_human MYBL2, P10244
# mybb_human MYBL2, P10244, sequence (P10244 whole entry): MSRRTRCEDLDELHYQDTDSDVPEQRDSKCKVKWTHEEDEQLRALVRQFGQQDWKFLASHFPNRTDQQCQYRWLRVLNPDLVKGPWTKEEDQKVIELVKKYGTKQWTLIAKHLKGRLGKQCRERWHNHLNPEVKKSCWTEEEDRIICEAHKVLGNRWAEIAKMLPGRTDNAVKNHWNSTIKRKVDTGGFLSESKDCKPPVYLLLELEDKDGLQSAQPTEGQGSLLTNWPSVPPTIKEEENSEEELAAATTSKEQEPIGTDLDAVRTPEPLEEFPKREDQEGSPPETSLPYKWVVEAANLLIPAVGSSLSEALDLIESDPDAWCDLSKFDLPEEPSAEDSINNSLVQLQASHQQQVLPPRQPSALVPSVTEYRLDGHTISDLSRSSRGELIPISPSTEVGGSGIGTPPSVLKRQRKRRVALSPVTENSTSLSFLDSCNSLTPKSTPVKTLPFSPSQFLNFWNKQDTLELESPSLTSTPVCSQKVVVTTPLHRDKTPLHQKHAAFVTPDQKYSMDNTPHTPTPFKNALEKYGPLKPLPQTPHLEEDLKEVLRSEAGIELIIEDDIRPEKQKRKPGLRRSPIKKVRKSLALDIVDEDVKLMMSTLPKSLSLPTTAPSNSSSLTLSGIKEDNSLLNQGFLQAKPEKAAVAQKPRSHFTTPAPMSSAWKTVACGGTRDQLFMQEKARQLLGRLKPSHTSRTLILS
row,Variant,effect of a mutation on the interaction
1,F102C,with no effect

# Variants of: B1
# Settings: with myc_human MYC
row,Variant,effect of a mutation on the interaction
1,F102C,with no effect

# Variants of: B1
# Settings: with mycn_human MYCN
row,Variant,effect of a mutation on the interaction
1,F102C,with no effect

# Variants of: B1
# Settings: with ncoa3_human NCOA3, Q9Y6Q9
row,Variant,effect of a mutation on the interaction
1,F102C,with no effect

# Variants of: B1
# Settings: with ikba_human NFKBIA
row,Variant,effect of a mutation on the interaction
1,F102C,with no effect

# Variants of: B1
# Settings: with nox1_human NOX1, Q9Y5S8
row,Variant,effect of a mutation on the interaction
1,F102C,with no effect

# Variants of: B1
# Settings: with ntrk2_human NTRK2, Q16620
row,Variant,effect of a mutation on the interaction
1,F102C,with no effect

# Variants of: B1
# Settings: with ntrk3_human NTRK3, Q16288
row,Variant,effect of a mutation on the interaction
1,F102C,with no effect

# Variants of: B1
# Settings: with pak3_human PAK3, O75914
row,Variant,effect of a mutation on the interaction
1,F102C,with no effect

# Variants of: B1
# Settings: with prkn_human PRKN
row,Variant,effect of a mutation on the interaction
1,F102C,with no effect

# Variants of: B1
# Settings: with pcbp1_human PCBP1, Q15365
row,Variant,effect of a mutation on the interaction
1,F102C,with no effect

# Variants of: B1
# Settings: with pdcd1_human PDCD1, Q15116
row,Variant,effect of a mutation on the interaction
1,F102C,with no effect

# Variants of: B1
# Settings: with pgfrb_human PDGFRB
row,Variant,effect of a mutation on the interaction
1,F102C,with no effect

# Variants of: B1
# Settings: with pdk1_human PDK1, Q15118
# pdk1_human PDK1, Q15118, sequence (Q15118 whole entry, looked up): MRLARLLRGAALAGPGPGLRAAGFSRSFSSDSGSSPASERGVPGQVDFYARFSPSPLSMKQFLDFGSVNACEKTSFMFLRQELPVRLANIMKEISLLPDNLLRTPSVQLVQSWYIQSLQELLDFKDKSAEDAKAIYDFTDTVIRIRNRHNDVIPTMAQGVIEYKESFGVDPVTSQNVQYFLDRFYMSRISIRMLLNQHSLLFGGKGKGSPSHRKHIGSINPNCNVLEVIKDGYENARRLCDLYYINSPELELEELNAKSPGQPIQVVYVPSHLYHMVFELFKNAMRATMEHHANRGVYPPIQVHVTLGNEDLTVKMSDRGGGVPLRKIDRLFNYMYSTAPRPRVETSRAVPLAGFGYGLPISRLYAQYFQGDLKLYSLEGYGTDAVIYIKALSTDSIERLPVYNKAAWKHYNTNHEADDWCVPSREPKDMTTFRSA
row,Variant,effect of a mutation on the interaction
1,F102C,with no effect

# Variants of: B1
# Settings: with PIK3C2B
row,Variant,effect of a mutation on the interaction
1,F102C,with no effect

# Variants of: B1
# Settings: with pk3ca_human PIK3CA
row,Variant,effect of a mutation on the interaction
1,F102C,with no effect

# Variants of: B1
# Settings: with pk3cb_human PIK3CB
row,Variant,effect of a mutation on the interaction
1,F102C,with no effect

# Variants of: B1
# Settings: with pk3cg_human PIK3CG
row,Variant,effect of a mutation on the interaction
1,F102C,with no effect

# Variants of: B1
# Settings: with p85b_human PIK3R2, O00459
row,Variant,effect of a mutation on the interaction
1,F102C,with no effect
